From paper PMC8116589, “Distinguishing Signal From Noise in Immunopeptidome Studies of Limiting-Abundance Biological Samples: Peptides Presented by I-A^b in C57BL/6 Mouse Thymus” (Frontiers in Immunology, 2021)
Where no end group is shown, it is not given here.

Target: soluble I-A^b-3R, mouse MHC-II protein (recombinant I-A^b) (mouse)
Assay: fluorescence polarisation; competition: 100 nM I-A^b-3R (3R cut off by thrombin, 1 U/ug), 25 nM Alexa488-labeled CLIP probe peptide, test peptide from 100 uM in 5-fold dilutions, 0.5 uM HLA-DM, read after 72 h at 37 C; 100 mM sodium citrate, 50 mM NaCl, 0.1% octyl glucoside, 5 mM EDTA, 1 mM DTT; three independent experiments, mean and SD

Binder	IC50 [nM]
AQRAGYKAAIVHNVDS [… (E3 ubiquitin-protein ligase RNF13 peptide)]	2420
LNLPTGIPIVYEL (not fully specified) [… (Phosphoglycerate mutase 2 peptide)]	54400
AGTGVDNVDLEAATR (not fully specified) [… (D-3-phosphoglycerate dehydrogenase peptide)]	57500
YSMGMHTYQVG [… (Cathepsin S peptide)]	74100

Binders with a lower IC50, results first:

IC50 [nM]	Binder
250	IRRYGVSQPDAVAAWK (not fully specified) [… (Alpha-N-acetylglucosaminidase peptide)]
445	NDWTVDHPQTLFAWEG [… (B-cell receptor CD22 peptide)]
152	QVLSWSSPVGSRTLA [… (Protein Siglecg peptide)]
